Where two headings read alike, the source gives them in different places.
Legend:
[1] = biological target: T1, human complement component C1q (human, UniProt P02745 23-245; P02746 28-253; P02747 29-245); assay: SPR
T1 construct: the three subunits are from general knowledge

[2] = biological target: T2, cynomolgus monkey CD96, native, on primary cynomolgus monkey T cells (cynomolgus monkey, UniProt A0A2K5TWV6 22-569); assay: flow cytometry on activated cynomolgus monkey T cells, donor 2
T2 construct: whole, on cells
T2 sequence: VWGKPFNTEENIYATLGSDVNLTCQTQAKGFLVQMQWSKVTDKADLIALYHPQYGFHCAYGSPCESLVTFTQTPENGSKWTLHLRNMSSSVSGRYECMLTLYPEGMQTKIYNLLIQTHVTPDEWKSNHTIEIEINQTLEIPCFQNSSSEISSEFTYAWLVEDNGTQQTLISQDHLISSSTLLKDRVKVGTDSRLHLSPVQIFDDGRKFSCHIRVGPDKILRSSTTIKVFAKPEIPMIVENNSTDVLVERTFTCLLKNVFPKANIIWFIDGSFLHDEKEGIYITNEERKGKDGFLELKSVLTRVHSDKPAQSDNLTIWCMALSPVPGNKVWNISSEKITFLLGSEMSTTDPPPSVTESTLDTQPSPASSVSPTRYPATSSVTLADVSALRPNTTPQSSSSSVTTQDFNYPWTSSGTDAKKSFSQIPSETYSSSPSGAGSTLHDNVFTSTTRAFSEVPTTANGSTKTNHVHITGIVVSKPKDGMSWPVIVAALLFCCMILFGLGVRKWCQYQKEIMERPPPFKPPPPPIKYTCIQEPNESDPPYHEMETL

[3] = biological target: T3, human CD96v1 on transiently transfected HEK cells (human, UniProt P40200 22-585); assay: flow cytometry on transiently transfected HEK cells (Human CD96v1)
T3 construct: whole, on cells
T3 sequence (looked up): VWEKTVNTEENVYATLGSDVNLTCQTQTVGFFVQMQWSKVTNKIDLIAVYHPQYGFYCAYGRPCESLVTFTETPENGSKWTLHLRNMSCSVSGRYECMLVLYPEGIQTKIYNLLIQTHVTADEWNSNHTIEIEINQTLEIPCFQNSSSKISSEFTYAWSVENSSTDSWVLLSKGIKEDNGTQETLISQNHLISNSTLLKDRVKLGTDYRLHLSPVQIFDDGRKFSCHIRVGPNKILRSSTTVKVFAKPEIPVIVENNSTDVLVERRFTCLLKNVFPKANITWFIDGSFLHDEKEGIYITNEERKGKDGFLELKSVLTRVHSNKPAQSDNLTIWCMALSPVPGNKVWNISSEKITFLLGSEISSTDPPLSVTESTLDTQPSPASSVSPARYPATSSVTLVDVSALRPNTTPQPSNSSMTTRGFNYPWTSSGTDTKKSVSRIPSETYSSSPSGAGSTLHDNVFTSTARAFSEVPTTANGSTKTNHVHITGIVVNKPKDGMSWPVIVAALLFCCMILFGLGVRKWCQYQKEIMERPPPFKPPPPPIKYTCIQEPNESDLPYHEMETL

[4] = biological target: T4, human CD96v2 expressed on cells (CHO cells; transiently transfected HEK cells) (human, UniProt P40200-2 22-569); assay: flow cytometry on transiently transfected HEK cells (Human CD96v2)
T4 construct: whole, on cells; the cell is named under assay; also called CHO-huCD96; hCD96v2
T4 sequence (looked up): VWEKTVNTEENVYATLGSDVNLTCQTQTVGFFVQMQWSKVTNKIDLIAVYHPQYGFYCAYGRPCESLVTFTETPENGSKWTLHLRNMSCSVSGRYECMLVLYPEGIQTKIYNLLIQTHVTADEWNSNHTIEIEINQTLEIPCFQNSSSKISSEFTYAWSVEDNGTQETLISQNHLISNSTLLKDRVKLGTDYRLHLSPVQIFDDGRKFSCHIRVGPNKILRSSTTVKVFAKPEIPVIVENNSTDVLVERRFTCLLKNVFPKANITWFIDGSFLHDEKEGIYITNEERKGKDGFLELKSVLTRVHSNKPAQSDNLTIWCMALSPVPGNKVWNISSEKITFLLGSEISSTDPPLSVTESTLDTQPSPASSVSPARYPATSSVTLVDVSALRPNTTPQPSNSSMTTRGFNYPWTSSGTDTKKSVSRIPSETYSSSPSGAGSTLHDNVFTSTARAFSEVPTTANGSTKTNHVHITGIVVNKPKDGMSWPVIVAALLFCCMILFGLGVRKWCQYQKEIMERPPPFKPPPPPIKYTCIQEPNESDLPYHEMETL

[5] = biological target: T3, human CD96v1 on transiently transfected …; assay: flow cytometry on transiently transfected HEK cells (Human CD96v1); remark: listed apart in the source
[6] = biological target: T4, human CD96v2 expressed on cells (CHO …); assay: flow cytometry on transiently transfected HEK cells; lower end of range, n = 3
[7] = biological target: T5, cynomolgus monkey CD96v2 expressed on cells (CHO cells; transiently transfected HEK cells) (cynomolgus monkey, UniProt A0A2K5TWV6 22-569); assay: as above
T5 construct: the cell is named under assay; also called CHO-cyCD96; Cyno CD96v2
T5 sequence: T2 sequence

[8] = biological target: T3, human CD96v1 on transiently transfected …; assay: as above
[9] = biological target: T6, cynomolgus monkey CD96v1 on transiently transfected HEK cells (cynomolgus monkey); assay: as above
T6 construct: whole, on cells; also called Cyno CD96v1

[10] = biological target: T7, blood derived cynomolgus monkey CD96v2 on transiently transfected HEK cells (cynomolgus monkey); assay: as above
T7 construct: also called Blood derived Cyno CD96v2

[11] = biological target: T7, blood derived cynomolgus monkey CD96v2 …; assay: flow cytometry on transiently transfected HEK cells (Cyno blood derived CD96v2)

T1 sequence (P02745 23-245 limits assumed, chain 1 of 3): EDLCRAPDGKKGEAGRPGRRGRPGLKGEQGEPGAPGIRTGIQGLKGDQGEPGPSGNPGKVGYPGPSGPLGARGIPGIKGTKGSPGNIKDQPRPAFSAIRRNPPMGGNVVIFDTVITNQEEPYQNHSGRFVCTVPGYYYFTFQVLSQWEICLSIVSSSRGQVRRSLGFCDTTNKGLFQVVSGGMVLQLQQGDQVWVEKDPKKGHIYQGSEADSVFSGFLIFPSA
T1 sequence (P02746 28-253 limits assumed, chain 2 of 3): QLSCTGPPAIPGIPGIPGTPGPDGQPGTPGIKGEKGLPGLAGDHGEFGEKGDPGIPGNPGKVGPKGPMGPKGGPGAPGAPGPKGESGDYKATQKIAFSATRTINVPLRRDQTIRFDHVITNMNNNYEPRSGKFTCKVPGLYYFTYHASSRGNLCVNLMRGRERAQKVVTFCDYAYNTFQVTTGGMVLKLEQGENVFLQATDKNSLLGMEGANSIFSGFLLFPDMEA
T1 sequence (P02747 29-245 limits assumed, chain 3 of 3): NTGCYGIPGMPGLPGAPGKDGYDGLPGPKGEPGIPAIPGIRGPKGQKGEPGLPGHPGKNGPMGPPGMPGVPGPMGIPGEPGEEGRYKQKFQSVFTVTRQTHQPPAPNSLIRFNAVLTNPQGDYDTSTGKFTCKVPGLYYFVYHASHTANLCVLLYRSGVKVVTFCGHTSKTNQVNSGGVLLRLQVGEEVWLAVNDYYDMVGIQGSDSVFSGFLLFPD

B1: 42Y073-86F08-66 (antibody)
heavy: not shown
light: DIQLTQSPSSLSASVGDRVTITCRASQSISSYLNWYQQKPGKAPKLLIYAASSLQSGVPSRFSGSGSGTDFTLTISSLQPEDFATYYCQQVLHTITFGGGTKVEIKRTVAAPSVFIFPPSDEQLKSGTASVVCLLNNFYPREAKVQWKVDNALQSGNSQESVTEQDSKDSTYSLSSTLTLSKADYEKHKVYACEVTHQGLSSPVTKSFNRGEC
notes: also called GSK 6097608; GSK6097608
Question: What does the source list for B1?
Answer: Kd [1]: 94.4 nM; EC50 (read off the curve) [2]: ~0.1 nM; EC50 (read off the curve) [3]: ~3 nM; EC50 (read off the curve) [4]: ~5 nM; EC50 (read off the curve) [5]: ~7 nM; EC50 [6]: 4.72 nM; EC50 [7]: 5.54 nM; EC50 [8]: 3.13 nM; EC50 [9]: 6.83 nM; EC50 [10]: 5.27 nM; EC50 (read off the curve) [11]: ~7 nM
